Holding throughout (experiment): virus attachment assay at 4° C. on transfected L929 cells, immunostaining, Mander's co-localization coefficient
For assay [1], the target named is human tryptophanyl-tRNA synthetase (hWARS) on cells (human) (UniProt P23381).
Assay [2] has as its target human scavenger receptor class B member 2 (hSCARB2) on L929 cells (human) (UniProt Q14108).
In assay [3] the target is human P-selectin glycoprotein ligand-1 (hPSGL1) on L929 cells (human) (UniProt Q14242).
UniProt Q14242, sequence (Q14242 42-412): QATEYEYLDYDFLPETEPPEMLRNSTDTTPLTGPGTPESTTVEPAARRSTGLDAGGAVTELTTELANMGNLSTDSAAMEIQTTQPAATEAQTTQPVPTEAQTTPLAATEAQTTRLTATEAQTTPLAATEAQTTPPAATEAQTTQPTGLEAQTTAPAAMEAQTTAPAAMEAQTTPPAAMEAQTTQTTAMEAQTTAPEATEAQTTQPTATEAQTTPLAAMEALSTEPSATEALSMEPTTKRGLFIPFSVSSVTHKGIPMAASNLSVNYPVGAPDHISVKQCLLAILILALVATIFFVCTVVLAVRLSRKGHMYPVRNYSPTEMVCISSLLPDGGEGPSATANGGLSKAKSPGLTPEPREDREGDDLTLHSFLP

UniProt Q14108, sequence (Q14108 whole entry): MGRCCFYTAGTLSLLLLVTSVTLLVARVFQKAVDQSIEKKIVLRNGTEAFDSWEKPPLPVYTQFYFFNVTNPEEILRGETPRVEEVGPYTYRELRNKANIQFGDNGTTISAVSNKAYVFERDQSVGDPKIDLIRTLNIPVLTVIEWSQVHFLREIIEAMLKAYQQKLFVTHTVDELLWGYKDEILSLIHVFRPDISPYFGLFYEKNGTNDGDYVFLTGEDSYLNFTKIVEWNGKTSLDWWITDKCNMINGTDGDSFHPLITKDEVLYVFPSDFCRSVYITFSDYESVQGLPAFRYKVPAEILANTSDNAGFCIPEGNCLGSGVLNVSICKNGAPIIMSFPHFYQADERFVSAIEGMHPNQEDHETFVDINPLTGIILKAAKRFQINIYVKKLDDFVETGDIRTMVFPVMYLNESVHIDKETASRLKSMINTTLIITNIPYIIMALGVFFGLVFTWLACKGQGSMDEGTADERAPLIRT
UniProt P23381, sequence (P23381 2-471): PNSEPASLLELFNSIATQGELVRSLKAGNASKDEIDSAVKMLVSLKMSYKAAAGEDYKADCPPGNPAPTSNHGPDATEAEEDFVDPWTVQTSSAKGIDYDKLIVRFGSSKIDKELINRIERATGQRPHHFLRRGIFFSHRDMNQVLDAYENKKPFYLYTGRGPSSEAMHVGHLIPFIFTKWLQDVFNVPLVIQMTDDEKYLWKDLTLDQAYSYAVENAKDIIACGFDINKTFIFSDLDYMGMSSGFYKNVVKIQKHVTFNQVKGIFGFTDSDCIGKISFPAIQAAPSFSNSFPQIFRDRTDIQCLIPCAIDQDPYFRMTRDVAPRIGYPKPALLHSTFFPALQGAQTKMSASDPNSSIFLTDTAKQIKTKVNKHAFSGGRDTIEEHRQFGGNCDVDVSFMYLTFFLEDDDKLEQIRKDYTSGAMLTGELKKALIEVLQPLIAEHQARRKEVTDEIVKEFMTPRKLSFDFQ

Consider enterovirus 71 (EV-A71) virus, for which the co-localization coefficient (R) in assay [1] turned out to be 0.655; in assay [2], 0.432; in assay [3], 0.501.

Values taken from patent publication US20190358326A1.
